Assay [1] addresses T1, canine IL-31 protein (Canine_IL31) (canine).
T1 chain: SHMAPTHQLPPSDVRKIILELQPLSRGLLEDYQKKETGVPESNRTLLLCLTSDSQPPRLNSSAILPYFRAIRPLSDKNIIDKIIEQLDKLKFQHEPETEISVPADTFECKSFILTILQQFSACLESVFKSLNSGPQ
Briefly: cell-based or functional assay.

Assay [2] has as its target T2, canine IL-31 protein (Canine_IL31).
T2 chain: T1 chain
In words: Biacore. (In general: In SPR one partner is held on a chip, and binding of the other changes the refractive index at the surface.)

Assay [3] addresses T1, canine IL-31 protein (Canine_IL31). In words: SPR (Biacore), IL-31 protein as surface. As for the experimental part:
(§1) The affinity with which candidate mAbs bind canine and feline IL-31 was determined using surface plasmon resonance (SPR) on a Biacore system (Biocore Life Sciences (GE Healthcare), Uppsala, Sweden). To avoid affinity differences associated with differential surface preparation that can occur when immobilizing antibodies to surfaces; a strategy was employed where IL-31 was directly conjugated to the surface. Immobilization was obtained by amine coupling 5 μg/mL IL-31 using N-hydroxysuccinimide (NHS)/1-Ethyl-3-(3-dimethylaminopropyl) carbodiimide (EDC) chemistry. Chips were quenched with ethanolamine and the affinity with which all candidate mAbs bound to the immobilized IL-31 was evaluated. All curves were fit to a 1:1 model. […] Results for affinity measurements are described herein.
Table 1 below describes the results for biacore analysis using multiple species of IL-31 protein as a surface capture.

For assay [4] the target is unchanged. In words: Biacore, canine IL-31 surface, single antibody concentration (FIG. 4). As for the experimental part: as §1
For the indirect ELISA method, antibody binding to wildtype and feline IL-31 15H05 mutant proteins was assessed. All nine canine monoclonal antibodies (ZIL1, ZIL8, ZIL8, ZIL11, ZIL69, ZIL94, ZIL154, ZIL159, and ZIL171) were capable of binding to wildtype feline IL-31 and binding was impacted by mutations in the mAb 15H05 epitope region confirming the correct binding phenotype determined during the initial screening used to identify them. […]

Assay [5] shares this target. Briefly: cell-based or functional assay.
For assay [6] the target is unchanged. In words: SPR (Biacore), FIG. 2 Section B. On the procedure: as §1
FIG. 2 details the affinity of antibodies with CDRs derived from mouse origin using biacore. […] These observations confirm the correct sequence for both mouse antibodies and indicate conversion to the chimeric form results in antibodies with equivalent or higher affinity when compared to the mouse parent with the exception of the mouse:feline 15H05 chimera which lost some affinity to both IL-31 species as a result of its conversion to the chimeric form. […]

B1: mouse anti IL-31 antibody 15H05 (antibody, mouse IgG1, kappa)
heavy: QVQLQQSAAELARPGASVKMSCKTSGYTFTSYTIHWIKQRPGQGLEWIGNINPTSGYTENNQRFKDKTTLTVDRSSNTAYLQLHSLTSEDSAVYFCARWGFKYDGEWSFDVWGAGTTVTVSSKTTPPSVYPLAPGSAAQTNSMVTLGCLVKGYFPEPVTVTWNSGSLSSGVHTFPAVLESDLYTLSSSVTVPSSPRPSETVTCNVAHPASSTKVDKKIVPRDCGCKPCICTVPEVSSVFIFPPKPKDVLTITLTPKVTCVVVDISKDDPEVQFSWFVDDVEVHTAQTQPREEQFNSTFRSVSELPIMHQDWLNGKEFKCRVNSAAFPAPIEKTISKTKGRPKAPQVYTIPPPKEQMAKDKVSLTCMITDFFPEDITVEWQWNGQPAENYKNTQPIMNTNGSYFVYSKLNVQKSNWEAGNTFTCSVLHEGLHNHHTEKSLSHSPGK
light: DIQMNQSPSSLSASLGDTITVTCRASQGISIWLSWYQQKPGNIPKVLINKASNLHIGVPPRFSGSGSGTHFTLTITSLQPEDIATYYCLQSQTYPLTFGGGTKLEINADAAPTVSIFPPSSEQLTSGGASVVCFLNNFYPKDINVKWKIDGSERQNGVLNSWTDQDSKDSTYSMSSTLTLTKDEYERHNSYTCEATHKTSTSPIVKSFNRNEC
notes: Mouse hybridoma antibody, mouse IgG1 heavy and mouse kappa light constant regions; also called Mu-15H05; MU-15H05
Broadly, the Kd is the concentration at which binding is half-saturated. On to B1, for which the “Inhibition of IL-31 induced pSTAT3 IC50 (µg/ml), Canine IL-31 on Canine DH82 cells” value (“Inhibition of IL-31 induced pSTAT3 IC50” for short) in assay [1] is 11.2 µg/ml. In addition, the dissociation constant (Kd) in assay [2] was 4.87 pM; in assay [3] it was 1.91 pM.

B2: ZIL154 (antibody, V domains shown)
VH: EVHLVESGGDLVKPWGSLRLSCVASGFTFSDRGMSWVRQSPGKGLQWVAYIRYDGSRTDYADAVEGRFTISRDNAKNTLYLQMNSLRAEDTAVYYCARWDGSSFDYWGQGTLVTVSS
VL: DIVVTQTPLSLSVSPGETASFSCKASQSLLHSDGNTYLDWFRQKPGQSPQRLIYKVSNRDPGVPDRFSGSGSGTDFTLRISGVEADDAGLYYCMQAIHFPLTFGAGTKVELKR
notes: Recombinant fully canine IgG (65_1), HEK 293; also called CAN-ZIL154
Take B2: the binding result in assay [4] was “no binding”.

B3: mouse: feline 15H05 chimera (antibody)
heavy: QVQLQQSAAELARPGASVKMSCKTSGYTFTSYTIHWIKQRPGQGLEWIGNINPTSGYTENNQRFKDKTTLTVDRSSNTAYLQLHSLTSEDSAVYFCARWGFKYDGEWSFDVWGAGTTVTVSSASTTAPSVFPLAPSCGTTSGATVALACLVLGYFPEPVTVSWNSGALTSGVHTFPAVLQASGLYSLSSMVTVPSSRWLSDTFTCNVAHPPSNTKVDKTVRKTDHPPGPKPCDCPKCPPPEAAGAPSIFIFPPKPKDTLSISRTPEVTCLVVDLGPDDSDVQITWFVDNTQVYTAKTSPREEQFNSTYRVVSVLPILHQDWLKGKEFKCKVNSKSLPSPIERTISKAKGQPHEPQVYVLPPAQEELSRNKVSVTCLIKSFHPPDIAVEWEITGQPEPENNYRTTPPQLDSDGTYFVYSKLSVDRSHWQRGNTYTCSVSHEALHSHHTQKSLTQSPGK
light: DIQMNQSPSSLSASLGDTITVTCRASQGISIWLSWYQQKPGNIPKVLINKASNLHIGVPPRFSGSGSGTHFTLTITSLQPEDIATYYCLQSQTYPLTFGGGTKLEINRSDAQPSVFLFQPSLDELHTGSASIVCILNDFYPKEVNVKWKVDGVVQNKGIQESTTEQNSKDSTYSLSSTLTMSSTEYQSHEKFSCEVTHKSLASTLVKSFQRSECQRE
In the case of B3, the “IC50 against canine IL-31 (pSTAT3 assay; cell type not clear)” value in assay [5] was 28.6 µg/ml. This molecule also returned a Kd in assay [2] of 12.9 pM.

B4: 15H05 mouse: canine chimera (antibody)
heavy: QVQLQQSAAELARPGASVKMSCKTSGYTFTSYTIHWIKQRPGQGLEWIGNINPTSGYTENNQRFKDKTTLTVDRSSNTAYLQLHSLTSEDSAVYFCARWGFKYDGEWSFDVWGAGTTVTVSSASTTAPSVFPLAPSCGSTSGSTVALACLVSGYFPEPVTVSWNSGSLTSGVHTFPSVLQSSGLYSLSSMVTVPSSRWPSETFTCNVAHPASKTKVDKPVPKRENGRVPRPPDCPKCPAPEMLGGPSVFIFPPKPKDTLLIARTPEVTCVVVDLDPEDPEVQISWFVDGKQMQTAKTQPREEQFNGTYRVVSVLPIGHQDWLKGKQFTCKVNNKALPSPIERTISKARGQAHQPSVYVLPPSREELSKNTVSLTCLIKDFFPPDIDVEWQSNGQQEPESKYRTTPPQLDEDGSYFLYSKLSVDKSRWQRGDTFICAVMHEALHNHYTQESLSHSPGK
light: DIQMNQSPSSLSASLGDTITVTCRASQGISIWLSWYQQKPGNIPKVLINKASNLHIGVPPRFSGSGSGTHFTLTITSLQPEDIATYYCLQSQTYPLTFGGGTKLEINRNDAQPAVYLFQPSPDQLHTGSASVVCLLNSFYPKDINVKWKVDGVIQDTGIQESVTEQDKDSTYSLSSTLTMSSTEYLSHELYSCEITHKSLPSTLIKSFQRSEC
On to B4, for which, in assay [5], the “IC50 against canine IL-31 (pSTAT3 assay; cell type not clear)” value is 12.5 µg/ml.

B5: ZTS-361 (antibody)
heavy: QVLLVQSGAEVRTPGASVKIFCKASGYSFTSYTIHWLRQAPAQGLEWMGNINPTSGYTENNQRFKDRLTLTADTSTNTAYMELSSLRSADTAMYYCARWGFKYDGEWSFDVWGAGTTVTVSSASTTAPSVFPLAPSCGTTSGATVALACLVLGYFPEPVTVSWNSGALTSGVHTFPAVLQASGLYSLSSMVTVPSSRWLSDTFTCNVAHPPSNTKVDKTVRKTDHPPGPKPCDCPKCPPPEAAGAPSIFIFPPKPKDTLSISRTPEVTCLVVDLGPDDSDVQITWFVDNTQVYTAKTSPREEQFNSTYRVVSVLPILHQDWLKGKEFKCKVNSKSLPSPIERTISKAKGQPHEPQVYVLPPAQEELSRNKVSVTCLIKSFHPPDIAVEWEITGQPEPENNYRTTPPQLDSDGTYFVYSKLSVDRSHWQRGNTYTCSVSHEALHSHHTQKSLTQSPGK
light: EIQMTQSPSSLSASPGDRVTITCRASQGISIWLSWYQQKPGNIPKVLINKASNLHIGVPSRFSGSGSGTDFTLTISSLEPEDAATYYCLQSQTYPLTFGGGTKLEIKRSDAQPSVFLFQPSLDELHTGSASIVCILNDFYPKEVNVKWKVDGVVQNKGIQESTTEQNSKDSTYSLSSTLTMSSTEYQSHEKFSCEVTHKSLASTLVKSFQRSECQRE
notes: Felinized 15H05 1.1 FW2, effector-null feline heavy constant region
In the case of B5, in assay [1], the “Inhibition of IL-31 induced pSTAT3 IC50” value was 23 µg/ml. The same molecule had an equilibrium dissociation constant (Kd) in assay [3] of 2.41 pM.

B6: ZTS-1505 (antibody)
heavy: B5 heavy
light: EIQMTQSPSSLSASPGDRVTITCRASQGISIWLSWYQQKPGNIPKVLINKASNLHIGVPSRFSGSGSGTDFTLTISSLEPEDAATYYCLQSQTYPLTFGGGTKLEIKRSDAQPSVFLFQPSLDELHTGSASIVCILNDFYPKEVNVKWKVDGVVQNKGIQESTTEQNSKDSTYSLSSTLTMSSTEYQSHEKFSCEVTHKSLASTLVKSFQRSEC
notes: also called ZT-1 505
Regarding B6, the “Inhibition of IL-31 induced pSTAT3 IC50” value in assay [1] turned out to be 21.8 µg/ml. In assay [3], this molecule showed a Kd of 1.83 pM.

B7: Feline 11E12 1.2 (antibody, V domains shown)
VH: QVLLVQSGAEVKKPGASVKIFCKASGYSFTYYDINWLRQAPEQGLEWMGWIFPGDGGTKYNETFKGRLTLTADTSTNTVYMELSSLRSADTAMYYCARGGTSVIRDAMDYWGQGALVTVSS
VL: EVVLTQSSAFLSRTLKEKATITCRASESVDNYGISFMHWYQQKPNQAPKLLVKRASNLESGAPSRFSGSGSGTDFTLTISSPEPEDAATYYCQQSNKDPLTFGQGT
notes: also called felinized 11E12 1.2
As for B7, the binding result in assay [6] is reported as “no binding”.

The values above are taken from patent US20190284272A1 (published 2019).
